Source: the RNAGym collection of RNA variant scans (doi:10.1093/molbev/msab373)

B1: Azoarcus group I ribozyme (parent)
chain: GUGCCUUGCGCCGGGAAACCACGCAAGGGAUGGUGUCAAAUUCGGCGAAACCUAAGCGCCCGCCCGGGCGUAUGGCAACGCCGAGCCAAGCUUCGGCGCCUGCGCCGAUGAAGGUGUAGAGACUAGACGGCACCCACCUAAGGCAAACGCUAUGGUGAAGGCAUAGUCCAGGGAGUGGCGAAAGUCACACAAACCGG

Variants of: B1
Experiment: reverse-splicing fitness (ratio to wild type); higher = more active; in vitro selection; Mg2+ level not given
Method in brief: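 An in vitro group I ribozyme library with randomized positions was T7-transcribed and gel-purified. In triplicate, 10 pmol RNA in EPPS pH 7.5 was reacted with 50 pmoles of a 30-nt RNA substrate for 1 h at 37 °C across several added MgCl2 levels (1–48 mM), then stopped with EDTA. Products were reverse transcribed from a substrate-complementary primer, PCR-amplified and sequenced (HiSeq 4000). Fitness is a variant's read proportion after selection over that before, normalised to wild type.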
GUGCCUUGCGCCGGGAAACCACGCAAGGGAUGGUGUCAAAUUCGGCGAAACCUAAGCGCCCGCCCGGGCGUAUGGCAACGCGGAGCCAAGCUUCGGCGCCUGCGCCGAUGGAGGUGUAGGGACUAGACGGCACCCACCUAAGGCCAACGAUAUGGUGAAGGCAUAGUCUAGGGAGUGGCGAAAGUCACACAAACCGG showed a reverse-splicing fitness of 0.0075. GUGCCUUGCGCCGGGAAACCACGCAAGGGAUGGUGUCAAAUUCGGCGAAACCUAAGCGCCCGCCCGGGCGUAUGGCAACGCGGAGCCAAGCUUCGGCGCCUGCGCCGAUGGAGGUGUAGGGACUAGACGGCACCCACCUAAGGCCAACGAUAUGGUGAAGGCAUAGUCGAGGGAGUGGCGAAAGUCACACAAACCGG showed a reverse-splicing fitness of 0.00843. GUGCCUUGCGCCGGGAAACCACGCAAGGGAUGGUGUCAAAUUCGGCGAAACCUAAGCGCCCGCCCGGGCGUAUGGCAACGCGGAGCCAAGCUUCGGCGCCUGCGCCGAUGGAGGUGUAGGGACUAGACGGCACCCACCUAAGGCCAACGAUAUGGUGAAGGCAUAGUCCAGGGAGAGGCGAAAGUCACACAAACCGG gave a reverse-splicing fitness of 0.0127. For GUGCCUUGCGCCGGGAAACCACGCAAGGGAUGGUGUCAAAUUCGGCGAAACCUAAGCGCCCGCCCGGGCGUAUGGCAACGCGGAGCCAAGCUUCGGCGCCUGCGCCGAUGGAGGUGUAGGGACUAGACGGCACCCACCUAAGGCCAACGAUAUGGUGAAGGCAUAGUCCAGGGAGGGGCGAAAGUCACACAAACCGG, the reverse-splicing fitness was 0.00588. GUGCCUUGCGCCGGGAAACCACGCAAGGGAUGGUGUCAAAUUCGGCGAAACCUAAGCGCCCGCCCGGGCGUAUGGCAACGCGGAGCCAAGCUUCGGCGCCUGCGCCGAUGGAGGUGUAGGGACUAGACGGCACCCACCUAAGGCCAACGAUAUGGUGAAGGCAUAGUCCAGGGAGCGGCGAAAGUCACACAAACCGG gave a reverse-splicing fitness of 0.0132. GUGCCUUGCGCCGGGAAACCACGCAAGGGAUGGUGUCAAAUUCGGCGAAACCUAAGCGCCCGCCCGGGCGUAUGGCAACGCGGAGCCAAGCUUCGGCGCCUGCGCCGAUGGAGGUGUAGGGACUAGACGGCACCCACCUAAGGCCAACGGUAUGGUGAAGGCAUAGUCCAGGGAGUGGCGAAAGUCACACAAACCGG gave a reverse-splicing fitness of 0.00711. GUGCCUUGCGCCGGGAAACCACGCAAGGGAUGGUGUCAAAUUCGGCGAAACCUAAGCGCCCGCCCGGGCGUAUGGCAACGCGGAGCCAAGCUUCGGCGCCUGCGCCGAUGGAGGUGUAGGGACUAGACGGCACCCACCUAAGGCCAACGAUAUGGUGAAGGCAUAGUCUAGGGAGAGGCGAAAGUCACACAAACCGG showed a reverse-splicing fitness of 0.021. Work on GUGCCUUGCGCCGGGAAACCACGCAAGGGAUGGUGUCAAAUUCGGCGAAACCUAAGCGCCCGCCCGGGCGUAUGGCAACGCGGAGCCAAGCUUCGGCGCCUGCGCCGAUGGAGGUGUAGGGACUAGACGGCACCCACCUAAGGCCAACGAUAUGGUGAAGGCAUAGUCUAGGGAGGGGCGAAAGUCACACAAACCGG yielded a reverse-splicing fitness of 0.00551. With GUGCCUUGCGCCGGGAAACCACGCAAGGGAUGGUGUCAAAUUCGGCGAAACCUAAGCGCCCGCCCGGGCGUAUGGCAACGCGGAGCCAAGCUUCGGCGCCUGCGCCGAUGGAGGUGUAGGGACUAGACGGCACCCACCUAAGGCCAACGAUAUGGUGAAGGCAUAGUCUAGGGAGCGGCGAAAGUCACACAAACCGG the reverse-splicing fitness was 0.0128. In the case of GUGCCUUGCGCCGGGAAACCACGCAAGGGAUGGUGUCAAAUUCGGCGAAACCUAAGCGCCCGCCCGGGCGUAUGGCAACGCGGAGCCAAGCUUCGGCGCCUGCGCCGAUGGAGGUGUAGGGACUAGACGGCACCCACCUAAGGCCAACGAUAUGGUGAAGGCAUAGUCAAGGGAGGGGCGAAAGUCACACAAACCGG, the reverse-splicing fitness is reported as 0.00537. In the case of GUGCCUUGCGCCGGGAAACCACGCAAGGGAUGGUGUCAAAUUCGGCGAAACCUAAGCGCCCGCCCGGGCGUAUGGCAACGCGGAGCCAAGCUUCGGCGCCUGCGCCGAUGGAGGUGUAGGGACUAGACGGCACCCACCUAAGGCCAACGAUAUGGUGAAGGCAUAGUCAAGGGAGCGGCGAAAGUCACACAAACCGG, the reverse-splicing fitness is reported as 0.00767. For GUGCCUUGCGCCGGGAAACCACGCAAGGGAUGGUGUCAAAUUCGGCGAAACCUAAGCGCCCGCCCGGGCGUAUGGCAACGCGGAGCCAAGCUUCGGCGCCUGCGCCGAUGGAGGUGUAGGGACUAGACGGCACCCACCUAAGGCCAACGGUAUGGUGAAGGCAUAGUCAAGGGAGUGGCGAAAGUCACACAAACCGG, the reverse-splicing fitness was 0.00962. Work on GUGCCUUGCGCCGGGAAACCACGCAAGGGAUGGUGUCAAAUUCGGCGAAACCUAAGCGCCCGCCCGGGCGUAUGGCAACGCGGAGCCAAGCUUCGGCGCCUGCGCCGAUGGAGGUGUAGGGACUAGACGGCACCCACCUAAGGCCAACGAUAUGGUGAAGGCAUAGUCGAGGGAGCGGCGAAAGUCACACAAACCGG yielded a reverse-splicing fitness of 0.0187. With GUGCCUUGCGCCGGGAAACCACGCAAGGGAUGGUGUCAAAUUCGGCGAAACCUAAGCGCCCGCCCGGGCGUAUGGCAACGCGGAGCCAAGCUUCGGCGCCUGCGCCGAUGGAGGUGUAGGGACUAGACGGCACCCACCUAAGGCCAACGAUAUGGUGAAGGCAUAGUCGAGGGAGGGGCGAAAGUCACACAAACCGG the reverse-splicing fitness was 0.00603. In the case of GUGCCUUGCGCCGGGAAACCACGCAAGGGAUGGUGUCAAAUUCGGCGAAACCUAAGCGCCCGCCCGGGCGUAUGGCAACGCGGAGCCAAGCUUCGGCGCCUGCGCCGAUGGAGGUGUAGGGACUAGACGGCACCCACCUAAGGCCAACGAUAUGGUGAAGGCAUAGUCGAGGGAGAGGCGAAAGUCACACAAACCGG, the reverse-splicing fitness is reported as 0.0249.
